Test results as given in US20190170753A1 (ICAHN SCHOOL OF MEDICINE AT MOUNT SINAI, published 2019).
Where no end group is shown, it is not given here.

Legend:
[1] = molecular target: T1, C113WT biotin labeled HCV core peptide (hepatitis C virus, also: biotin labeled, position not given here); test: capture EIA; Ab 1.953 ng/mL; bt-peptide 500 ng/mL
T1 peptide: RGSRPSWGPTD

[2] = molecular target: T2, Mut6T110S biotin labeled HCV core peptide (hepatitis C virus, biotin labeled (position not given)); test: capture EIA; Ab 1.953 ng/mL; bt-peptide 500 ng/mL
[3] = molecular target: T3, Mut1T110N biotin labeled HCV core peptide (hepatitis C virus, biotin labeled (position not given)); test: capture EIA; Ab 1.953 ng/mL; bt-peptide 500 ng/mL
T3 peptide: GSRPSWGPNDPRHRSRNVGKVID

[4] = molecular target: T4, WT1STHV biotin labeled HCV core peptide (hepatitis C virus, biotin labeled (position not given)); test: capture EIA; Ab 1.953 ng/mL; bt-peptide 500 ng/mL
T4 peptide: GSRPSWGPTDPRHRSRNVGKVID

[5] = molecular target: T5, C113T109N biotin labeled HCV core peptide (hepatitis C virus, also: biotin labeled, position not given here); test: capture EIA; Ab 500 ng/mL; bt-peptide 500 ng/mL
T5 construct: also called C113T110N
T5 peptide: RGSRPSWGPND

[6] = molecular target: T1, C113WT biotin labeled HCV core peptide; test: capture EIA; Ab 500 ng/mL; bt-peptide 500 ng/mL
Method: (§1) Assay wells were coated with sheep anti-mouse IgG Fc specific antibody and incubated overnight. The coating solution was then removed; the wells blocked using BSA/tween in PBS and then washed with dH2O. […] Next, biotin labeled peptides (diluted to 500 ng/mL in block) were added, the plates incubated for 10 minutes while shaking at 700 rpm and then washed. Peroxidase conjugated streptavidin (diluted to 200 ng/mL in block) was then added to all assay wells, incubated for 20 minutes while shaking at 700 rpm and then washed. Finally, color was developed using OPD and signal quenched using 1N H₂SO₄. Signal was read at 492 nm.

[7] = molecular target: T2, Mut6T110S biotin labeled HCV core …; test: capture EIA; Ab 500 ng/mL; bt-peptide 500 ng/mL
Method: as §1

[8] = molecular target: T3, Mut1T110N biotin labeled HCV core …; test: capture EIA; Ab 500 ng/mL; bt-peptide 500 ng/mL
Method: as §1

[9] = molecular target: T6, 92-133 biotin labeled HCV core peptide (hepatitis C virus, UniProt Q9WMX2 92-133, chain 1: biotin label (bt-pep). Its position and any spacer are not visible in the passages shown.); test: capture EIA; Ab 500 ng/mL; bt-peptide 500 ng/mL
T6 construct: Only the label 92-133 is printed
T6 peptide: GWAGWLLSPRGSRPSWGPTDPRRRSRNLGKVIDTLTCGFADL
Method: as §1

[10] = molecular target: T4, WT1STHV biotin labeled HCV core peptide; test: capture EIA; Ab 500 ng/mL; bt-peptide 500 ng/mL
Method: as §1

[11] = molecular target: T5, C113T109N biotin labeled HCV core …; test: capture EIA; Ab 125 ng/mL; bt-peptide 500 ng/mL
Method: as §1

[12] = molecular target: T1, C113WT biotin labeled HCV core peptide; test: capture EIA; Ab 125 ng/mL; bt-peptide 500 ng/mL
Method: as §1

[13] = molecular target: T2, Mut6T110S biotin labeled HCV core …; test: capture EIA; Ab 125 ng/mL; bt-peptide 500 ng/mL
Method: as §1

[14] = molecular target: T6, 92-133 biotin labeled HCV core peptide; test: capture EIA; Ab 125 ng/mL; bt-peptide 500 ng/mL
Method: as §1

[15] = molecular target: T5, C113T109N biotin labeled HCV core …; test: capture EIA; Ab 15.625 ng/mL; bt-peptide 500 ng/mL
Method: as §1

[16] = molecular target: T1, C113WT biotin labeled HCV core peptide; test: capture EIA; Ab 15.625 ng/mL; bt-peptide 500 ng/mL
Method: as §1

[17] = molecular target: T2, Mut6T110S biotin labeled HCV core …; test: capture EIA; Ab 15.625 ng/mL; bt-peptide 500 ng/mL
Method: as §1

[18] = molecular target: T3, Mut1T110N biotin labeled HCV core …; test: capture EIA; Ab 15.625 ng/mL; bt-peptide 500 ng/mL
Method: as §1

[19] = molecular target: T6, 92-133 biotin labeled HCV core peptide; test: capture EIA; Ab 15.625 ng/mL; bt-peptide 500 ng/mL
Method: as §1

[20] = molecular target: T4, WT1STHV biotin labeled HCV core peptide; test: capture EIA; Ab 15.625 ng/mL; bt-peptide 500 ng/mL
Method: as §1

[21] = molecular target: T5, C113T109N biotin labeled HCV core …; test: capture EIA; Ab 250 ng/mL; bt-peptide 500 ng/mL
Method: as §1

[22] = molecular target: T1, C113WT biotin labeled HCV core peptide; test: capture EIA; Ab 250 ng/mL; bt-peptide 500 ng/mL
Method: as §1

[23] = molecular target: T2, Mut6T110S biotin labeled HCV core …; test: capture EIA; Ab 250 ng/mL; bt-peptide 500 ng/mL
Method: as §1

[24] = molecular target: T3, Mut1T110N biotin labeled HCV core …; test: capture EIA; Ab 250 ng/mL; bt-peptide 500 ng/mL
Method: as §1

[25] = molecular target: T6, 92-133 biotin labeled HCV core peptide; test: capture EIA; Ab 250 ng/mL; bt-peptide 500 ng/mL
Method: as §1

[26] = molecular target: T4, WT1STHV biotin labeled HCV core peptide; test: capture EIA; Ab 250 ng/mL; bt-peptide 500 ng/mL
Method: as §1

B1: Neo4 mouse monoclonal antibody (antibody, V domains shown)
VH: QIQLKESGPAVIKPSQSLSLTCIVSGFSITSSVYCWQWIRQPPGKGLEWMGRICYDGSVDYSPSITSRGTISRDTSLNKVFFQLSSVTNEDTAMYYCSRENHIDYYDTTYPSFDVWGAGTTVTVSS
VL: DIVLTQSPASLIVSLGQRATISCRASKSVNEYGYTYMHWYQQKPGLPPKLLIYLASNLDSGVPARFSGSGSGTDFTLNIHPVEEEDAATYYCQHSRELPYTFGGGTKLEIKR
notes: Mouse hybridoma antibody, isotype IgG1, purified with Protein G; also called HCV Neo4
- signal at 492 nm [1]: 0.0765 A492
- signal at 492 nm [2]: 0.0717 A492
- signal at 492 nm [3]: 0.0728 A492
- signal at 492 nm [4]: 0.409 A492
- signal at 492 nm [5]: 0.0803 A492
- signal at 492 nm [6]: 0.0561 A492
- signal at 492 nm [7]: 1.17 A492
- signal at 492 nm [8]: 0.065 A492
- signal at 492 nm [9]: 1.48 A492
- signal at 492 nm [10]: 1.91 A492
- signal at 492 nm [11]: 0.0858 A492
- signal at 492 nm [12]: 0.0599 A492
- signal at 492 nm [13]: 1.27 A492
- signal at 492 nm [14]: 1.31 A492
- signal at 492 nm [15]: 0.0736 A492
- signal at 492 nm [16]: 0.0697 A492
- signal at 492 nm [17]: 0.25 A492
- signal at 492 nm [18]: 0.0771 A492
- signal at 492 nm [19]: 0.806 A492
- signal at 492 nm [20]: 1.42 A492
- signal at 492 nm [21]: 0.111 A492
- signal at 492 nm [22]: 0.0607 A492
- signal at 492 nm [23]: 1.15 A492
- signal at 492 nm [24]: 0.089 A492
- signal at 492 nm [25]: 1.4 A492
- signal at 492 nm [26]: 1.99 A492
